Several values for one entry are separate records, joined by “and”; a condition that tells them apart may be missing. Equal entries are not always repeated.

For this series the following is noted: Escherichia coli (strain K12), pH 7.8, 25 °C, Urea, Potassium phosphate 10 mM, transition: 2, whole UniProt chain shown.

B1: Tryptophan synthase alpha chain wild type, P0A877 (protein)
chain: MERYESLFAQLKERKEGAFVPFVTLGDPGIEQSLKIIDTLIEAGADALELGIPFSDPLADGPTIQNATLRAFAAGVTPAQCFEMLALIRQKHPTIPIGLLMYANLVFNKGIDEFYAQCEKVGVDSVLVADVPVEESAPFRQAALRHNVAPIFICPPNADDDLLRQIASYGRGYTYLLSRAGVTGAENRAALPLNHLVAKLKEYNAAPPLQGFGISAPDQVKAAIDAGAAGAISGSAIVKIIEQHINEPEKMLAALKVFVQPMKAATRS
In the case of B1, for the setting “Absorbance”, the denaturant m value is 1.12 kcal/mol/M, the “denaturant midpoint (higher = more stable)” value (from here on “denaturant midpoint”) worked out at 3.73 M and the unfolding free energy stood at 4.16 kcal/mol. In addition, under “CD”, the denaturant m value was 1.11 kcal/mol/M and 1.09 kcal/mol/M; the “denaturant midpoint” value was 3.67 M and 3.65 M; the unfolding free energy is 4.08 kcal/mol and 3.96 kcal/mol. Moreover, under “Fluorescence”, the denaturant m value amounted to 1.09 kcal/mol/M, the “denaturant midpoint” value was 3.81 M and the unfolding free energy was 4.14 kcal/mol.

Source of the values: FireProtDB (doi:10.1021/bi9909041).
